Results from patent US20190233498A1 (H LUNDBECK A S, published 2019).

T1: human VIP (human)
T1 construct: also called Vasoactive Intestinal Peptide
T1 peptide: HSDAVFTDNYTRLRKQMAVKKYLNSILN

T2: human PACAP27 (human, C-terminal leucine is amidated; 125I-labelled in Example 10)
T2 peptide: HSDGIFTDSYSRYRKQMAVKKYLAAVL

T3: human PACAP38 (human, not fully specified; C-terminal lysine is amidated; N-terminal or C-terminal biotin in the HTRF and PC-12 cell binding assays)
T3 construct: synthetic peptide, bought; also called huPACAP (1-38)
T3 peptide: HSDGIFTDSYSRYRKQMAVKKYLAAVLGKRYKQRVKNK

B1: anti-PACAP antibody Ab18 (antibody, human IgG1, kappa, N297A, V domains shown)
VH: QSVEESGGRLVTPGTPLTLTCTVSGFSLSSAALSWVRQAPGKGLEWIGIIDKGVMSYYASWAKGRFTISKTSSTTVDLKVTSPTTEDTATYFCARGGGEFFIWGQGTLVTVSS
VL: AQVLTQTPSSVSAAVGGTVTINCQSSKSVYNNNWLSWYQQKPGQPPKFLIYQASNLASGVPSRFKGSGSGTQFTLTISDLECDDAATYYCAGGYSGNIVGFGGGTEVVVKR
notes: full-length rabbit/human chimeric antibody
B2: anti-PACAP antibody Ab19 (antibody, human IgG1, kappa, N297A, V domains shown)
VH: QSVEASGGRLVTPGTPLTLTCTVSGFSLSSATMNWVRQAPGKGLEWIGLIGGNDERYYASWAKGRFTISKTSSTTVDLKMTSPTTEDTATYFCARGGGEFFIWGPGTLVTVSS
VL: AQVLTQTPSSVSAAVGGTVTINCQSSESVYTNDRLSWYQQKPGQPPKLLIYEASKLASGVPPRFSGSGSGTQFTLTISDLECDDAATYYCAGAYSTSIHGFGGGTEVVVKR
notes: as for B1
B3: anti-PACAP antibody Ab4 (antibody, human IgG1, kappa, N297A, V domains shown)
VH: QSVEESGGRLVTPGTPLTLTCTVSGFSLSSYDMSWVRQAPGKGLEYIGIINTNDDTWYASWVKGRFTISKTSSTTVDLKMTSLTTEDTATYFCARISDAYVFDYAYYFTLWGQGTLVTVSS
VL: ALVMTQTPSSVSAAVGGTVTINCLASQNIYNSLAWYQQKPGQPPKLLIYRASTLASGVSSRFKGSGSGTQFTLTISGVECADAATYYCQQGAGADNIGNPFGGGTEVVVKR
notes: as for B1
B4: anti-PACAP antibody Ab5 (antibody, human IgG1, kappa, N297A, V domains shown)
VH: QSVEESGGRLVTPGTPLTLTCTVSGFSLSSYAMIWVRQAPGKGLEWIGIIYDNGDTYYASWAKGRFTISKTSTTVYLKIASPTTEDTATYFCAREPGSTTQNDLWGQGTLVTVSS
VL: DVVMTQTPASVSEPVGGTVTIKCQASENIYNSLLWYQQKPGQPPKLLIYRASTLASGVSSRFKGSGSGTEFTLTISDLECADAATYYCQNYYNIWTNGAAFGGGTEVVVKR
notes: as for B1

How the values were obtained:
human VIP = target: T1, human VIP; assay: SPR, Ab immobilised
Experimental: [The procedure below names another target; the source says it served here with some conditions changed.] (§1) Binding affinities of monoclonal antibodies for human PACAP were estimated using SPR on the PROTEON™ XPR36 (Bio-Rad, Hercules, Calif.). Antibody was immobilized to the surface of general amine coupling (“GLC” or “GLM”) Chips (Bio-Rad, Hercules, Calif.). A dilution series of human PACAP38 (SEQ ID NO: 1241) prepared in 1×PBST Buffer (4.3 mM Na Phosphate, 1.4 mM K Phosphate, 135 mM NaCl, 2.7 mM KCl 0.05% Polysorbate-20) purchased from Teknova (Cat# P1192, Teknova, Hollister, Calif.) and supplemented with 0.25 M arginine (from J.T. BAKER®), 0.2 mg/ml BSA (Jackson Immuno Research Labs, West Grove, Pa.), and 0.005% sodium azide (VWR International, Radnor, Pa.) with the pH adjusted to 7 was used to query the antibodies. Antigen (ranging from 1.23 nM to 100 nM) was typically run sequentially with association times of 2-4 minutes and dissociation times of 3-120 minutes grouped with the PROTEON™ Manager Software (v3.1.0.6 (Bio-Rad, Hercules, Calif.)) and fitted using a 1:1 Langmuir binding model. Surfaces were regenerated between analyte queries using 0.85% Phosphoric Acid.

human PACAP27 [1] = target: T2, human PACAP27; assay: SPR, Ab immobilised
Experimental: [The procedure below names another target; the source says it served here with some conditions changed.] as §1

human PACAP38 [2] = target: T3, human PACAP38; assay: SPR, Ab immobilised
Experimental: as §1

human PACAP27 [3] = target: T2, human PACAP27; assay: cell-based or functional assay
human PACAP38 [4] = target: T3, human PACAP38; assay: cell-based or functional assay
human PACAP38 [5] = target: T3, human PACAP38; assay: HTRF binding, biotin-PACAP38
Experimental: In parallel, 10 μl of an antibody dilution series (highest final concentration of 100 nM) were incubated with 10 μl of N-terminal or C-terminal biotinylated PACAP38 (35 nM final) alone, or in combination with either PACAP27 (350 nM final) or VIP (350 nM final), i.e., 10× PACAP27 or 10×VIP, respectively, in a HTRF plate. 20 μl of Eu³⁺ cryptate labeled anti-hu Fc donor and 20 μl of d2-labeled streptavidin acceptor were added to each well and incubated for 1 hour at room temperature. Fluorescence was measured at 620 and 665 nm with a delay of 300 μsec.
EC₅₀ values, i.e. the concentration of an antibody that yields a response halfway between the baseline and the maximum value within a specified time period, were computed for each antibody based upon their binding curves and are shown in Table 1 below. […] A humanized form of antibody Ab1 was produced and is identified by an appended “.H”, i.e., Ab1.H, and it also bound PACAP38 with high affinity.

human PACAP38 [6] = target: T3, human PACAP38; assay: cell-based or functional assay
human PACAP38 [7] = target: T3, human PACAP38; assay: cell-based or functional assay
human PACAP38 [8] = target: T3, human PACAP38; assay: inhibition of 100 nM biotin-PACAP38 binding to PC-12 cells, TRF
Experimental: To identify antibodies that block PACAP38 binding to PAC1-R-expressing cells, adherent PC-12 cells (ATCC, Manassas, Va.) expressing PAC1-R were used in a Europium-based PAC1-R expressing cells binding assay.
Antibody solutions were incubated with N-terminal biotinylated PACAP38 at 10× the final concentration (100 nM or 30 nM) for 1 hr, then added to PC-12 cells that were plated 24 hrs. prior in black clear bottom 96 well plates (COSTAR™, Corning Incorporated, Corning, N.Y.) and further incubated for 1 hr at room temperature. After three washes, the cells were incubated with 20 μl Europium-labeled streptavidin (PerkinElmer, Waltham, Mass.) for 1 hr at room temperature. Cells were washed three times, then 20 μl DELFIA® Enhancement solution (PerkinElmer, Waltham, Mass.) was added to each well and incubated for 15 minutes with gentle shaking. Plates were read (Time Resolved Fluorescence (“TRF”)) on SPECTRAMAX® (Molecular Devices, Sunnyvale, Calif.) plate reader.
FIGS. 14A-14BB are representative of the inhibition curves obtained by this method (results are shown for Ab1, Ab2, Ab3, Ab4, Ab5, Ab6, Ab7, Ab8, Ab9, Ab10, Ab11, Ab12, Ab13, Ab14, Ab15, Ab16, Ab17, Ab18, Ab19, Ab1.H, Ab10.H, Ab22, Ab23, Ab3.H, Ab4.H, Ab5.H, Ab9.H, and Ab12.H, respectively) wherein the PAC1-R expressing cells were PC-12 cells.

Binder	Kd (human VIP)	koff (human VIP)	kon (human VIP)	Kd (human PACAP27 [1])	koff (human PACAP27 [1])	kon (human PACAP27 [1])	Kd (human PACAP38 [2])	koff (human PACAP38 [2])	kon (human PACAP38 [2])	IC50, 0.1 nM PACAP27-induced PAC1-R mediated cAMP increase (human PACAP27 [3])	IC50, 0.1 nM PACAP38-induced PAC1-R mediated cAMP increase (human PACAP38 [4])	EC50 (human PACAP38 [5])	IC50, 1 nM PACAP38-induced human VPAC2-R mediated cAMP increase (human PACAP38 [6])	IC50, 5 nM PACAP38-induced human VPAC1-R mediated cAMP increase (human PACAP38 [7])	IC50 (human PACAP38 [8])
B1	400 nM	0.12 s⁻¹	310000 M⁻¹ s⁻¹	≤ 0.023 nM	≤ 1e-05 s⁻¹	440000 M⁻¹ s⁻¹	≤ 0.023 nM	≤ 1e-05 s⁻¹	430000 M⁻¹ s⁻¹	0.0916 nM	0.118 nM	0.48 nM	0.285 nM	0.911 nM	30.6 nM
B2	1000 nM	0.28 s⁻¹	280000 M⁻¹ s⁻¹	0.31 nM	0.00013 s⁻¹	420000 M⁻¹ s⁻¹	0.093 nM	2.5e-05 s⁻¹	270000 M⁻¹ s⁻¹	0.0874 nM	0.101 nM	0.43 nM	0.954 nM	0.827 nM	162 nM
B3	120 nM	0.021 s⁻¹	170000 M⁻¹ s⁻¹	0.51 nM	0.0002 s⁻¹	390000 M⁻¹ s⁻¹	0.22 nM	7.2e-05 s⁻¹	330000 M⁻¹ s⁻¹	0.0769 nM	0.34 nM	0.66 nM	0.218 nM	0.943 nM	28.6 nM
B4	7200 nM	0.86 s⁻¹	120000 M⁻¹ s⁻¹	0.096 nM	2.4e-05 s⁻¹	250000 M⁻¹ s⁻¹	≤ 0.041 nM	≤ 1e-05 s⁻¹	240000 M⁻¹ s⁻¹	0.353 nM	0.327 nM	0.6 nM	0.239 nM	0.721 nM	16.3 nM
